Consider two substances from patent US20170247475A1.

For test [1], the target named is human serum albumin (human) (UniProt P02768). Briefly: SPR, albumin on CM5 chip, multicycle kinetics. A general note: In SPR one partner is held on a chip, and binding of the other changes the refractive index at the surface.
In test [2] the target is cyno serum albumin (cyno). Briefly: SPR, albumin on CM5 chip, multicycle kinetics.
The target of test [3] is mouse serum albumin (mouse) (UniProt P07724). The test can be described thus: SPR, albumin on CM5 chip, multicycle kinetics.
Test [4] deals with human serum albumin (human) (UniProt P02768). The test can be described thus: SPR, albumin on chip, 1:1 interaction model.
The target of test [5] is cyno serum albumin (cyno). The test can be described thus: SPR, albumin on chip, 1:1 interaction model.
Test [6] deals with mouse serum albumin (mouse) (UniProt P07724). Briefly: SPR, albumin on chip, 1:1 interaction model.
Test [7] addresses cAng2 (cynomolgus monkey). Briefly: competition ELISA, blocking of cAng2 binding to cTie2. For orientation: An ELISA detects its analyte on a solid surface through an enzyme-linked reagent.
In test [8] the target is hAng2. The test can be described thus: competition ELISA, blocking of hAng2 binding to hTie2.
Test [9] concerns the target cAng2 (cynomolgus monkey). The test can be described thus: competition ELISA, blocking of cAng2 binding to cTie2. This is another data set of the same source.
The target in test [10] is hAng2. The test can be described thus: competition ELISA hAng2/hTie2-Fc; blocked: hTie2-Fc.
Test [11] has as its target hAng2. The test can be described thus: competition ELISA, blocking of hAng2 binding to hTie2-Fc.
The target in test [12] is hAng2. The test is described as above. The source holds these as a separate data set.
Test [13] addresses mAng2. The test can be described thus: competition ELISA, blocking of mAng2 binding to mTie2-Fc.
Test [14] addresses hAng2. Briefly: competition ELISA, blocking of hAng2 binding to hTie2. This is another data set of the same source.
The target of test [15] is cAng2 (cynomolgus monkey). The test can be described thus: competition ELISA, blocking of cAng2 binding to cTie2-Fc.
For test [16], the target named is mAng2. Briefly: competition ELISA mAng2/mTie2-Fc; blocked: mTie2-Fc.
Test [17] addresses mAng2. The test can be described thus: competition ELISA, blocking of mAng2 binding to mTie2.
For test [18], the target named is mAng2. Briefly: competition ELISA mAng2/mTie2-Fc; blocked: mTie2-Fc. The source holds these as a separate data set.
Test [19] deals with hAng2.
Test [20] concerns the target cAng2 (cynomolgus monkey). Briefly: competition ELISA, blocking of cAng2 binding to cTie2. The source holds these as a separate data set.
In test [21] the target is hAng2. Briefly: competition ELISA hAng2/hTie2-Fc; blocked: hTie2-Fc. The source holds these as a separate data set.
In test [22] the target is hAng2. The description is as above. The source holds these as a separate data set.
Test [23] concerns the target mAng2. The test can be described thus: competition ELISA, blocking of mAng2 binding to mTie2. The source holds these as a separate data set.
Test [24] has as its target mAng2. The test is described as above. This is another data set of the same source.
Test [25] concerns the target hAng2. The test can be described thus: competition ELISA, blocking of hAng2 binding to hTie2. The source holds these as a separate data set.
The target in test [26] is hAng2. The test can be described thus: competition ELISA, blocking of hAng2 binding to hTie2-Fc. The source holds these as a separate data set.

hAng2, sequence (chain, as listed by the source limits assumed): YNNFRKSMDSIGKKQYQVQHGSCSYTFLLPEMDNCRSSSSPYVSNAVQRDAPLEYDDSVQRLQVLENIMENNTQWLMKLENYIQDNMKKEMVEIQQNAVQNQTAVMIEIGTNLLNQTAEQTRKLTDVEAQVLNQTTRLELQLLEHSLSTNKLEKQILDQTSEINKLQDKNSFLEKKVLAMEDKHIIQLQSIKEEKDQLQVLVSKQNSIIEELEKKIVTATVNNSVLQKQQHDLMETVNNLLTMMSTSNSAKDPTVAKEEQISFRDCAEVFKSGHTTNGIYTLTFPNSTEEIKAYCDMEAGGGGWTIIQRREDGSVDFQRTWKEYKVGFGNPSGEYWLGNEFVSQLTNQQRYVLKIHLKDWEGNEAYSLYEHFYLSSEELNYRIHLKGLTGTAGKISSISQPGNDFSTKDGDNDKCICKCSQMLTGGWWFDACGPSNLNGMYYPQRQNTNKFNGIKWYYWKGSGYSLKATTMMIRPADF
mouse serum albumin (mouse), sequence (P07724 25-608 limits assumed): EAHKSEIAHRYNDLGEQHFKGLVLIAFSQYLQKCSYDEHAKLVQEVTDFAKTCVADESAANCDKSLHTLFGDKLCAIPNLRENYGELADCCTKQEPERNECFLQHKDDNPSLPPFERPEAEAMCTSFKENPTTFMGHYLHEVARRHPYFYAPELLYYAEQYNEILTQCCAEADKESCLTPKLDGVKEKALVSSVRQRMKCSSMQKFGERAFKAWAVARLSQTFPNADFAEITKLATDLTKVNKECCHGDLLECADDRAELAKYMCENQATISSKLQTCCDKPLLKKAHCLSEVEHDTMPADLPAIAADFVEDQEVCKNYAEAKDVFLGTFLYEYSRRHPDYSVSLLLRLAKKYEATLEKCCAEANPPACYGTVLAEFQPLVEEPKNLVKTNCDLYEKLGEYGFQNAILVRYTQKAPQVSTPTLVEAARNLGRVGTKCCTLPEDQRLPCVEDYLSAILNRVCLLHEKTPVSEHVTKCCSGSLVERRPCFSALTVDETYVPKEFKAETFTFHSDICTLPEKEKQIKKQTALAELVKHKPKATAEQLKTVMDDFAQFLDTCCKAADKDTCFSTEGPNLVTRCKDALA
mAng2, sequence (chain, as listed by the source limits assumed): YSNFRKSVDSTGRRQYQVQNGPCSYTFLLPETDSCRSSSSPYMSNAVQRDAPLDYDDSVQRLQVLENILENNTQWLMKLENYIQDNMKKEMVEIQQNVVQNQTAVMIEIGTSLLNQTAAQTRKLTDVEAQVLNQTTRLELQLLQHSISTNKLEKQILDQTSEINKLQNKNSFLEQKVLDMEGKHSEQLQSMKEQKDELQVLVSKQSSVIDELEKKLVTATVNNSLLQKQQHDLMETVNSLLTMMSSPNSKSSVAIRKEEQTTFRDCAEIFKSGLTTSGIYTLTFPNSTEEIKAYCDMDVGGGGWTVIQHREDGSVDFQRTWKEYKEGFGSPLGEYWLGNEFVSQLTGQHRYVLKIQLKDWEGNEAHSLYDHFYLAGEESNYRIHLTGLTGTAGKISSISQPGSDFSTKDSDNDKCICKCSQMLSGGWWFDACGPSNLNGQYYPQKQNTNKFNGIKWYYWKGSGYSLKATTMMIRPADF
cyno serum albumin (cyno), sequence (A2V9Z4 25-608): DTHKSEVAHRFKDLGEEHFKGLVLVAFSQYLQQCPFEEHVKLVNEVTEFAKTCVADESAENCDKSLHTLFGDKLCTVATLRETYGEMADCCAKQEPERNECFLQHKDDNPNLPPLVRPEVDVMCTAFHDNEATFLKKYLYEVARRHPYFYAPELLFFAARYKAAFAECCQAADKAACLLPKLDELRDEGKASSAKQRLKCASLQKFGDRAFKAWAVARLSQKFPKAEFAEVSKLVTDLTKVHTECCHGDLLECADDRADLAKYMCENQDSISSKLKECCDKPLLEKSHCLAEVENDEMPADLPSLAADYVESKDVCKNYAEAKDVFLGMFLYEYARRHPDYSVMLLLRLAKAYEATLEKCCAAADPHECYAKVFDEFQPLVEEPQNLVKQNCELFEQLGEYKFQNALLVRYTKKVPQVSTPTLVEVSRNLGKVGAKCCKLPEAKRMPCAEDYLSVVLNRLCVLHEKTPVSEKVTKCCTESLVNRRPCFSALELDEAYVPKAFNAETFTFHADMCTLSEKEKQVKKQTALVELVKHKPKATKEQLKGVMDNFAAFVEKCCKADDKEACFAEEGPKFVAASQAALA

As for ALB11 (VHH), the Kd – broadly, a measure of binding affinity in units of concentration – was 4000 pM in test [1]; 4000 pM in test [2]; 49000 pM in [3]; 4000 pM in test [4]; 4000 pM in test [5]; 51000 pM in [6]. Further, the koff (commonly a measure of how fast the partners let go of each other) is 0.0018 s⁻¹ in test [1]; 0.0016 s⁻¹ in test [2]; 0.032 s⁻¹ in test [3]; 0.0019 s⁻¹ in [4]; 0.03 s⁻¹ in test [6].

For AMG386, the IC50 (read off the curve) was 3 pM in test [7]; 3 pM in the test with hAng2 [8]; 4 pM in test [9]; 4 pM in the test with hAng2 [10]; 2 pM with hAng2 [11]; 3 pM with hAng2 [12]. The IC50 (read off the curve) in the test with mAng2 [13] was 2 pM; with hAng2 [14], 6 pM; in test [15], 10 pM; in the test with mAng2 [16], 6 pM; with mAng2 [17], 1 pM; with mAng2 [18], 5 pM. Moreover, the IC50 (read off the curve) in test [20] came out at 30 pM; with hAng2 [21], 6 pM; in the test with hAng2 [22] it was 7 pM; with mAng2 [23], 9 pM; in the test with mAng2 [24] it was 3 pM; with hAng2 [25], 1 pM. The IC50 (read off the curve) in the test with hAng2 [26] was found to be 3 pM. Further, the IC50 (read off the curve), hAng2 mediated HUVEC survival in the test with hAng2 [19] is 1000 pM.
